To fix the notation:
T1: GPC3-B peptide
T1 peptide: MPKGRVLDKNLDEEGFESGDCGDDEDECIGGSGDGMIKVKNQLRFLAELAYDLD

T2: GPC3-A peptide
T2 construct: Peptide of the GPC3 antigen
T2 peptide: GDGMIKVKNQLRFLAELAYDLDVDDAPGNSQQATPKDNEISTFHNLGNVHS

T3: GPC3-B3 (human)
T3 construct: Overlapping peptide of GPC3-B
T3 peptide: DKNLDEEGFESG

T4: GPC3-B8
T4 construct: also called long fragments containing GPC3-B3
T4 peptide: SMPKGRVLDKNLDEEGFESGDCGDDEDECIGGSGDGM

B1: GC025 (antibody, V domains shown)
VH: EVQLLESGGGVVQPGRSLRLSCAASGFTFSSYAMHWVRQAPGKGLEWVAVISYDGSNKYYADSVKGRFTISRDNSKNTLYLQMNSLRAEDTAVYYCARRQRAAIDYWGQGTTVTVSS
VL: DIQLTQSPSSLSASVGDRVTITCRASQSISSYLSWYQQKPGKAPKLLIYGASSLQSGVPSRFSGSGSGTDFTLTISSLQPEDFATYSCQQSYSTQFTFGPGTKVDIK
notes: Detected with anti-human IgG-Fc-HRP
B2: GC139 (antibody, V domains shown)
VH: EVQLVESGGGLIQPGGSLRLSCAASGFTFSSYAMHWVRQAPGKGLEYVSAISSNGGSTYYADSVKGRFTISRDNSKNTLYLQMSSLRPDDTAVYYCVRGWIRPPPGSFDLWGQGTTVTVSS
VL: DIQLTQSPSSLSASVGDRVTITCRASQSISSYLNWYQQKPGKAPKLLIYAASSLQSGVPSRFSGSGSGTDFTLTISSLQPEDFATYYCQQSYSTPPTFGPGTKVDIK
notes: as for B1
B3: GC147 (antibody, V domains shown)
VH: B2 VH with I12V, D62N, S84G, P88A, D89E, T91M, T116P
VL: AIRLTQSPSSLSASVGDRVSITCRASQSISTFLNWYQQKPGKAPNLLIYSASTLQSGVPSRFSGSGSGTDFTLTISSLQPEDFATYYCQQSYSSPPTFGQGTKLEIK
notes: as for B1
B4: GC037 (antibody, V domains shown)
VH: B2 VH with V5L, I12V, D62N, D73H, N74P, T78I, Y80F, Q82E, S84N, T116P
VL: AIRLTQFPSSLSASVGDRVTITCRARQSIDNYLNWYQEKPGKAPKLLIYAASSLQSGVPSRFSGSGSGTEFTLTISSLQPDDFAAYYCQQSYDSPPTFGQGTKVEIK
notes: as for B1
B5: GC053 (antibody, V domains shown)
VH: B2 VH with V5L, I12V, D62N, S84G
VL: NIQMTQSPSSLSAFVGDRVTITCRASQSISRYLNWYQHKPGQAPKLLMYAASTLQDEVPSRFSGSGSGTYFTLTISSLEPEDFATYYCQQSYSTPPTFGGGTKVEIK
notes: as for B1
B6: GC90 (antibody, V domains shown)
VH: QVQLLESGGGLVQPGGSLRVSCAASGFTFNSYAMSWVRQAPGKGLEWVASIKSSGDRVQYADSVKGRFTISRDNSKNTVYLEMNSLRAEDTAIYYCAKPQWSSPQRTFEVWGQGTPVTVSS
VL: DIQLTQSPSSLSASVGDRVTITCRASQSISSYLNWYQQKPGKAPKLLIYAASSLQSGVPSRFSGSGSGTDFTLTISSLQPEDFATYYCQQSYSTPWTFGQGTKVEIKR
notes: Human IgG1 / kappa; also called GC90 monoclonal antibody; humanized monoclonal antibody GC90
B7: GC011 (antibody, V domains shown)
VH: EVQLLESGGGVVQPGRSLRLSCAASGFTFSSYGMHWVRQAPGKGLEWVAVISYDGSNKYYADSVKGRFTISRDNSKNTLYLQMNSLRAEDTAVYYCAKNPSLDYWGQGTTVTVSS
VL: NIQMTQSPSSLSASVGDRVTITCRASQSITRYLNWYQQKPGKGPKLLIYAASRLQSGVPSRFSGSGSGTDFTLTISSLQPEDFATYYCQQSHSIPRTFGQGTKLEIK
notes: as for B1
B8: GC067 (antibody, V domains shown)
VH: EVQLLESGGGVVQPGRSLRLSCAASGFTFSSYAMHWVRQAPGKGLEWVAVISYDGSNKYYADSVKGRFTISRDNSKNTLYLQMNSLRAEDTAVYYCARRLRGSGMDVWGQGTPVTVSS
VL: not shown
notes: as for B1
B9: GC035 (antibody, V domains shown)
VH: B8 VH with Q13R, L100K, R101S, G104S, M105F, V107Y
VL: DIQLTQSPSSLSASVGDRVTITCRAGQTINNYLHWYQQKPGKAPKLLIFAASSLQSGVPSRFSGSGSGTDFTLTISSLQPEDFATYYCQQSYSPPLTFGGGTRVEIK
notes: as for B1
B10: GC010 (antibody, V domains shown)
VH: B8 VH with R99D, L100E, R101S, G102R, S103R, G104K, M105F, V107Y, P113T
VL: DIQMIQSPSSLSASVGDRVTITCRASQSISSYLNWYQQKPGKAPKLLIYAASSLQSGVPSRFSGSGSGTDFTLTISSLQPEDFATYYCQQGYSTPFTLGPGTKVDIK
notes: as for B1
B11: GC008 (antibody, V domains shown)
VH: EVQLLESGGGLVQPGGSMRLSCAASEIDFSVYALGWSRQAPGKQRELVATITTSSTTTYADSVKGRFTISRDNAKNTVYLQMNSLKPEDTAVYYCHTLRRTGSGIVPGRIWGQGTPVTVSS
VL: DIQLTQSPSSLSASVGDRVTITCQASQDIDNSVTWYQQRPGKAPSLLISDASILESGVPSRFSGRGSGTHFTLSITSLQPEDIATYYCQQYENLPITFGQGTRLEIK
notes: Detected with anti-human IgG-Fc-HRP in the ELISA, so it carried a human Fc
B12: hYP7HM (antibody, human IgG1, kappa, L234A L235A, V domains shown)
VH: EVQLVESGGGLVQPGGSLRLSCAASGFTFNKNAMNWVRQAPGKGLEWVGRIRNKTNNYATYYADSVKGRFTISRDDSKNSLYLQMNSLKTEDTAVYYCVAGNSFAYWGQGTLVTVSA
VL: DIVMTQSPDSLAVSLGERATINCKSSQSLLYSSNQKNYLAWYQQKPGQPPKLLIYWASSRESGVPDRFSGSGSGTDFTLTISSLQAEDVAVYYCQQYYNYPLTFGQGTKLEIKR
notes: Control anti-GPC3 antibody; also called control antibody hYP7HM; control anti-GPC3 antibody hYP7HM

Residue numbers refer to the chain shown, from its start.

The target in one experiment is T1, GPC3-B peptide. Description: ELISA, peptide coated at 6 µg/mL. (In an ELISA, binding on a coated surface is turned into a signal by an enzyme label.)
B1: the binding result is on record as “binds”.

As for B2, the binding result is reported as “binds”.

On to B3, for which the binding result was “binds”.

Consider B4, for which the binding result was “binds”.

Take B5: the binding result is on record as “binds”.

Turning to B6, the binding result is listed as “binds”.

In the case of B7, the binding result is listed as “binds”.

Consider B8, for which the binding result is “binds”.

With B9, the binding result is given as “binds”.

On to B10, for which the binding result is listed as “binds”.

For B11, the binding result was “binds”.

In another experiment the target is T2, GPC3-A peptide. Description: ELISA, peptide coated at 6 µg/mL.
Take B12: the binding result is recorded as “binds”.

A further experiment has as its target T3, GPC3-B3. Description: ELISA, overlapping peptide coated at 6 µg/mL.
On to B6, for which the binding result is reported as “binds”.

Another experiment concerns the target T4, GPC3-B8. Description: ELISA, overlapping peptide coated at 6 µg/mL.
On to B6, for which the binding result is “binds”.

The target in a further experiment is T5, Mouse GPC3 (ACRO Biosystems, GP3-M52H3) (mouse, UniProt Q8CFZ4 25-558).
T5 construct: also called mouse Gpc3 protein; mouse GPC3 protein
T5 sequence (Q8CFZ4 25-558 limits assumed): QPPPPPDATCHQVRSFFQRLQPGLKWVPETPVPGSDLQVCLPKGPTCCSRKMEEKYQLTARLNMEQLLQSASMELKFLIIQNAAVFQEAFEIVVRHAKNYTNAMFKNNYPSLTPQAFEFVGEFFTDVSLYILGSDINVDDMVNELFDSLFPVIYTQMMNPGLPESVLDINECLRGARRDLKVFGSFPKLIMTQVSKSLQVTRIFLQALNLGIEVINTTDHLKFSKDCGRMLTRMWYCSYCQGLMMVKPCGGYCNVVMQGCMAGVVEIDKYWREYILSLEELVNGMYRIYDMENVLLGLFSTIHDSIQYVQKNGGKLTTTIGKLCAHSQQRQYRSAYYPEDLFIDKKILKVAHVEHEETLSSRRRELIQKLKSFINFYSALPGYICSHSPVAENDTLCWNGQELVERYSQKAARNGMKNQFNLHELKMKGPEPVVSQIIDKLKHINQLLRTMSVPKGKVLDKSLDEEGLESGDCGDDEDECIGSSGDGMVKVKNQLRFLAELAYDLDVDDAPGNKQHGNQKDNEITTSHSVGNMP
Briefly: ELISA, GPC3 protein coated at 6 µg/mL; × indicates no affinity recognition.
On to B6, for which the binding result is listed as “no binding (tested: 30 nM)”.

Source of the values: patent EP4725968A1 (Salubris (Chengdu) Biotech Co., Ltd., dated 2024).
